The values below come from PMC4364404.

The data set has as its target T1, NgTet1 (Naegleria gruberi, UniProt D2W6T1 1-321).
T1 sequence: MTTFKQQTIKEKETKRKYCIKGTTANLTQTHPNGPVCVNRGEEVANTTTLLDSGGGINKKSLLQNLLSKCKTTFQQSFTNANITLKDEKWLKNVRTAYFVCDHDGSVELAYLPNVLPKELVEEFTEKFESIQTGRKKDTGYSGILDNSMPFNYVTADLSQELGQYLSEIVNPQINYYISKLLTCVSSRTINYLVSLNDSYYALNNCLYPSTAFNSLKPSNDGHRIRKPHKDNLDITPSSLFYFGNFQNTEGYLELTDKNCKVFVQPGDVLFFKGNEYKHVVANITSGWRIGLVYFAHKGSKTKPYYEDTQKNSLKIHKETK
Put plainly: X-ray crystallography.

B1: 14-bp fully methylated CpG DNA (dsDNA)
DNA 1: TGGAACGCAATTCT
DNA 2: AGAATTGCGTTCCA
modifications: 5mC at position 6 of strand 1 and position 8 of strand 2
Take B1: the binding result is “binds”.
